In US20200115416A1 (REGENTS OF THE UNIVERSITY OF MINNESOTA, published 2020):
Where two headings read alike, the source gives them in different places. Square brackets hold non-standard residues; d marks the D form.

B1: c[Pro-Arg-Phe-Phe-Asn-Ala-Asp-DPro] (peptide)
peptide: cyclo(PRFFNAD[dP])
SMILES: C[C@@H]1NC(=O)[C@H](CC(N)=O)NC(=O)[C@H](Cc2ccccc2)NC(=O)[C@H](Cc2ccccc2)NC(=O)[C@H](CCCNC(=N)N)NC(=O)[C@@H]2CCCN2C(=O)[C@H]2CCCN2C(=O)[C@H](CC(=O)O)NC1=O
B2: hAGRP(86-132) (ligand, human, UniProt O00253 86-132, looked up)
chain: RCVRLHESCLGQQVPCCDPCATCYCRFFNAFCYCRKLGTAMNPCSRT
notes: range 86-132; also called C-terminal domain of AGRP

What was measured:
[1] = target: T1, mouse melanocortin-3 receptor (mouse, UniProt P33033 1-323); experiment: cell-based or functional assay
T1 sequence (P33033 whole entry): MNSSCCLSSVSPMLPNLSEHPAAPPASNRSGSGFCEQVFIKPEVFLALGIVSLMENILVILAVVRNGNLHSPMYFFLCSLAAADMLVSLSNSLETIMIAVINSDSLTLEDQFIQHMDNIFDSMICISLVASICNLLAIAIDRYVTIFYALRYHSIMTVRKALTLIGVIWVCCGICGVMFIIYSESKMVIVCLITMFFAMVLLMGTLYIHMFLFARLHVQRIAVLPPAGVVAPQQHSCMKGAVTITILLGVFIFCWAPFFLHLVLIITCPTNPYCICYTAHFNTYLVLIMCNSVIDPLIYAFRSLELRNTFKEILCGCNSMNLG

[2] = target: T2, mouse melanocortin-1 receptor (mouse, UniProt Q01727 1-315); experiment: cell-based or functional assay
T2 sequence (Q01727 whole entry): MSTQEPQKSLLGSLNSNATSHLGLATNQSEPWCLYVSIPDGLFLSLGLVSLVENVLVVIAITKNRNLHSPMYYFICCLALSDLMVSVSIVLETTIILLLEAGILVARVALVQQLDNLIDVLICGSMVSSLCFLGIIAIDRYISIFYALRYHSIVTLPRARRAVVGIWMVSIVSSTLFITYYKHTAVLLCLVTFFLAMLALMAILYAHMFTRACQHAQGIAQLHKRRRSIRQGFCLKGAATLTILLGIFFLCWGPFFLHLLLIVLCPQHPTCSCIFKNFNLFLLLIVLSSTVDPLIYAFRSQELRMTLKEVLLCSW

[3] = target: T3, mouse melanocortin-5 receptor (mouse, UniProt P41149 1-325); experiment: cell-based or functional assay
T3 sequence (P41149 whole entry): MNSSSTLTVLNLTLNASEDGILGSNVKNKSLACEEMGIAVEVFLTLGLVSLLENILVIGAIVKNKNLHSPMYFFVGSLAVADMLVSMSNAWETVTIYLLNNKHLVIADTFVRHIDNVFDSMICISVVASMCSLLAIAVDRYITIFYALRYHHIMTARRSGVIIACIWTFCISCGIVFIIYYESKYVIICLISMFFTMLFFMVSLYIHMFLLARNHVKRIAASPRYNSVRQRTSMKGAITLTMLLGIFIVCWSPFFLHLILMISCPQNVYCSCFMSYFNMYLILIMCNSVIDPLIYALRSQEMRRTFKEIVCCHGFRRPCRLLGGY

[4] = target: T4, mouse melanocortin-4 receptor (mouse, UniProt P56450 1-332); experiment: cell-based or functional assay
T4 sequence (P56450 whole entry): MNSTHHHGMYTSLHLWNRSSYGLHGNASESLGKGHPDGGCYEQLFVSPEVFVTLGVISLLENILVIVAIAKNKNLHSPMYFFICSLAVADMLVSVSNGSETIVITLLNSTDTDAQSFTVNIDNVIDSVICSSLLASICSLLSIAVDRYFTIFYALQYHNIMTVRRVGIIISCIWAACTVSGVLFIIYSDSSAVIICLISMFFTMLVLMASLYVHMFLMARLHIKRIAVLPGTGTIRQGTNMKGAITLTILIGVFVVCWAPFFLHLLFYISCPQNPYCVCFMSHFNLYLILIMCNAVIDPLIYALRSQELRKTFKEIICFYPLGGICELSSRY

[5] = target: T5, human melanocortin-4 receptor (human, UniProt P32245 1-332); experiment: displacement of 125I-NDP-MSH, HEK293 cells expressing hMC4R
T5 construct: whole, on cells; in the thallium flux assay co-expressed with Kir7.1 (M125R); also called hMC4R; wildtype hMC4R
Method: (§1) Competitive binding affinity experiments were performed on HEK-293 cells stably expressing the wildtype hMC4R. […] The assay media was carefully aspirated and cells were washed once with assay buffer. Cell were lysed with 500 μL 0.1 M NaOH and 500 μL 1% Triton X-100 for a minimum of 10 min. […] All experiments were performed with duplicate data points and in at least two independent experimental replicates. […] Concentration-response curves and IC₅₀ values were generated and analyzed by the PRISM program (version 4.0. GraphPad Inc.) by a nonlinear regression method. The standard error of the mean (SEM) was derived from the IC₅₀ values from at least two independent experimental replicates.

[6] = target: T5, human melanocortin-4 receptor; experiment: displacement of 125I-AGRP, HEK293 cells expressing hMC4R
Method: as §1

[7] = target: T1, mouse melanocortin-3 receptor; experiment: cell-based or functional assay; remark: listed apart in the source
[8] = target: T2, mouse melanocortin-1 receptor; experiment: cell-based or functional assay; remark: listed apart in the source
[9] = target: T3, mouse melanocortin-5 receptor; experiment: cell-based or functional assay; remark: listed apart in the source
[10] = target: T4, mouse melanocortin-4 receptor; experiment: cell-based or functional assay; remark: listed apart in the source
[11] = target: T1, mouse melanocortin-3 receptor; experiment: cell-based or functional assay; remark: listed apart in the source
[12] = target: T2, mouse melanocortin-1 receptor; experiment: cell-based or functional assay; remark: listed apart in the source
[13] = target: T3, mouse melanocortin-5 receptor; experiment: cell-based or functional assay; remark: listed apart in the source
[14] = target: T4, mouse melanocortin-4 receptor; experiment: cell-based or functional assay; remark: listed apart in the source
[15] = target: T5, human melanocortin-4 receptor; experiment: cell-based or functional assay

Binder	agonist EC50 (cAMP AlphaScreen) [1] [nM]	antagonist pA2 (Schild, agonist NDP-MSH) [1]	agonist EC50 (cAMP AlphaScreen) [2] [nM]	agonist EC50 (cAMP AlphaScreen) [4] [nM]	antagonist pA2 (Schild, agonist NDP-MSH) [4]	IC50 [5] [nM]	IC50 [6] [nM]	antagonist pA2 (Schild, agonist NDP-MSH) [7]	agonist EC50 (cAMP AlphaScreen) [9] [nM]	% maximal NDP-MSH response at 100 µM (cAMP AlphaScreen) [10] [%]	also measured
cyclo(PRFFDAF[dP]) [c[Pro-Arg-Phe-Phe-Asp-Ala-Phe-DPro]]	> 100000	< 5.5	> 100000	> 100000	6.79	3600	1300	–	–	–	inverse agonist, % change from basal cAMP at 100 µM [3]: -25%
cyclo(PRFFEAF[dP]) [c[Pro-Arg-Phe-Phe-Glu-Ala-Phe-DPro]]	> 100000	< 5.5	20500	> 100000	7	2500	1400	–	–	–	inverse agonist apparent potency [3]: 700 nM; inverse agonist, % decrease from basal cAMP [3]: -10%
PRFFXAFP (head-to-tail cyclic; DArg at 2; Dap at 5; DPro at 8) [c[Pro-DArg-Phe-Phe-Dap-Ala-Phe-DPro]]	–	–	–	–	–	–	–	5.7	> 100000	25	% maximal NDP-MSH response at 100 µM (cAMP AlphaScreen) [7]: 25%; % maximal NDP-MSH response at 100 µM (cAMP AlphaScreen) [8]: 25%
PRFFXAFP (head-to-tail cyclic; DPhe at 3; Dap at 5; DPro at 8) [c[Pro-Arg-DPhe-Phe-Dap-Ala-Phe-DPro]]	–	–	–	–	–	–	–	5.92	> 100000	20	agonist EC50 (cAMP AlphaScreen) [7]: > 100000 nM; agonist EC50 (cAMP AlphaScreen) [8]: 230 nM
B1	–	–	–	–	–	–	–	–	–	–	antagonist pA2 (Schild, agonist NDP-MSH) [11]: < 5.5; % activation at 100 µM (cAMP AlphaScreen) [12]: 40%; inverse agonist, % change from basal cAMP at 100 µM [13]: -25%; antagonist pA2 (Schild, agonist NDP-MSH) [14]: < 5.5
B2	–	8.7	–	–	8.7	–	12	–	–	–	antagonist pA2 (Schild, agonist NDP-MSH) [15]: 8.8; inverse agonist apparent potency (EC50) [15]: 2.4 nM; inverse agonist, % decrease from basal signal [15]: -35%
